Assay [1] has as its target T1, L198 N-terminal neo-epitope peptide LAGQPLQE-Acp-C (SEQ ID NO:54) conjugated to BSA (human, not fully specified (residue 10); printed as LAGQPLQE-Acp-C; also: C-terminal Cys conjugated to BSA carrier).
T1 construct: BSA carrier
T1 peptide: LAGQPLQE[Ahx]C
Description: direct ELISA after limiting dilution. (An ELISA detects its analyte on a solid surface through an enzyme-linked reagent.)

For assay [2], the target named is T2, negative control peptide AATVGSLAGQPLQER-Acp-C (SEQ ID NO:53) conjugated to BSA (human, not fully specified (residue 17); printed as AATVGSLAGQPLQER-Acp-C; also: C-terminal Cys conjugated to BSA carrier).
T2 construct: BSA carrier; also called 192-206 BSA-conjugated peptide
T2 peptide: AATVGSLAGQPLQER[Ahx]C
Description: direct ELISA; proteins coated at 0.1 uM, BSA peptides at 1 ug/ml; antibody in 3-fold dilutions from 3000 ng/ml; blank reduced OD 450 nm. As to the method: (§1) Selectivity evaluation of purified monoclonal antibodies by direct ELISA: The direct ELISA described below was used to evaluate the binding selectivity of the purified monoclonal antibodies produced in Example 14.
(§2) The screening was performed according to standard ELISA protocols. Briefly, 1 μg/ml solutions of BSA-conjugated neo-epitope peptides and negative control peptide, and 0.1 μM recombinant C-terminal ApoE fragment and full-length ApoE (Abcam, cat. no. ab50243) were prepared by dilution in PBS. 50 μl/well were added to an ELISA half-area 96 well microtiter plate, and the plate was sealed with adhesive sealer and incubated over night at 4° C. After discarding the solution, the plates were blocked with 150 μl/well of protein-free blocking solution (Pierce) for 1 h at room temperature with shake (600-900 rpm). The plates were washed four times with washing buffer containing 0.28 mM NaH₂PO₄, 2.5 mM Na₂HPO₄, 150 mM NaCl, 0.1% TWEEN®-20 and 0.0075% Kathon CG. Purified monoclonal antibodies of interest were 3-fold serially diluted with a starting dilution at 3 μg/ml (mixed 1:2 with dilution buffer (PBS with 0.1% BSA and 0.05% TWEEN®-20)). An anti-ApoE C-terminal antibody was used as a reference antibody (ApoE E-8 mouse monoclonal, Santa Cruz Biotechnology, cat. no. sc-393302). 50 μl/well were added into the ELISA plates and incubated for 2 h at room temperature with shake (600-900 rpm). The plates were washed four times as described previously. […] After another wash (as described previously), 50 μl/well of K-Blue® aqueous substrate (Neogen) were added, and the reaction was stopped after 5-15 min with 50 μl/well of 0.5 M […]. The optical density at 450 nm was read using an ELISA reader (Tecan).

Assay [3] addresses T3, G200 N-terminal neo-epitope peptide GQPLQE-Acp-C (SEQ ID NO:50) conjugated to BSA (human, not fully specified (residue 8); printed as GQPLQE-Acp-C; also: C-terminal Cys conjugated to BSA carrier).
T3 construct: also called G200-BSA peptide; G200-peptide
T3 peptide: GQPLQE[Ahx]C
The assay is described as above. The method, then: as §1, §2

Assay [4] addresses T4, recombinant full-length ApoE4 (aa 1-299; SEQ ID NO:45; Abcam cat. no. ab50243) (human, UniProt P02649 19-317).
T4 construct: Bought protein; also called recombinant ApoE4 full-length protein
Described as above. As to the method: as §1, §2

Assay [5] addresses T5, A199 N-terminal neo-epitope peptide AGQPLQ-Acp-C (SEQ ID NO:51) conjugated to BSA (human, not fully specified (residue 8); printed as AGQPLQ-Acp-C; also: C-terminal Cys conjugated to BSA carrier).
T5 construct: BSA carrier; also called A199-BSA peptide
T5 peptide: AGQPLQ[Ahx]C
The description is as above. As to the method: as §1, §2

Assay [6] has as its target T6, recombinant C-terminal ApoE fragment L198-HIS (ApoE-L198-H299-10xHIS) (human, UniProt P02649 216-317).
T6 construct: also called L198-HIS fragment
Description: direct ELISA, L198-HIS coated at 0.1 µM. As to the method: as §1, §2

Assay [7] addresses T7, full-length ApoE in human brain extract from Alzheimer's disease patients (human, UniProt P02649 19-317).
T7 construct: mature; Endogenous protein on Western blot or in solution (IP); also called ApoE full-length protein
Description: Western blot of AD brain RIPA 2% SDS extract; monoclonal antibody at 2 ug/ml as primary antibody.

Assay [8] addresses T8, His-tagged recombinant full-length ApoE4, 10xHIS-ApoE4(1-299) (human, UniProt P02649 19-317).
T8 construct: also called ApoE4-FL-HIS
Description: direct ELISA.

The target of assay [9] is T9, L198 N-terminal neo-epitope peptide LAGQPL-Acp-C (SEQ ID NO:52) conjugated to BSA (human, not fully specified (residue 8); printed as LAGQPL-Acp-C; also: C-terminal Cys conjugated to BSA carrier).
T9 construct: BSA carrier; also called L198-BSA peptide
T9 peptide: LAGQPL[Ahx]C
Description: direct ELISA, L198-BSA peptide coated at 1 µg/ml. As to the method: as §1, §2

The target of assay [10] is T3, G200 N-terminal neo-epitope peptide …. Description: direct ELISA, target coated at 1 ug/ml, supernatant in 3-fold dilutions from 1000 ng/ml, OD 450 nm. The method, then:
(§3) Selectivity evaluation by direct ELISA: The direct ELISA described below was used to evaluate the binding selectivity of generated monoclonal anti-ApoE antibodies with affinity for the N-terminal neo-epitope of C-terminal ApoE fragments starting at amino acid G200.
(§4) The screening was performed according to standard ELISA protocols. Briefly, 1 μg/ml solutions of N-terminal neo-epitope peptide (SEQ ID NO:50) conjugated to BSA, the recombinant C-terminal ApoE fragment G200-HIS (SEQ ID NO:48) and recombinant full-length ApoE4 (SEQ ID NO:45; Abcam; cat. no. ab50243) were prepared by dilution in PBS. 50 μl/well were added to an ELISA half-area 96 well microtiter plate. Then, the plate was sealed with adhesive sealer and incubated over night at 4° C. The plates were blocked with 150 μl/well of protein-free blocking solution (Pierce) for 1 h at room temperature with shake (600-900 rpm). The plates were washed four times with washing buffer containing 0.28 mM NaH₂PO₄, 2.5 mM Na₂HPO₄, 150 mM NaCl, 0.1% TWEEN®-20 and 0.0075% Kathon CG. Antibodies of interest were serially diluted 3-fold with a starting dilution at 1 μg/ml (mixed 1:1 with dilution buffer: PBS with 0.1% BSA and 0.05% TWEEN®-20) and incubated for 2 h at room temperature. The plates were washed four times as before. […] After another wash (as above), 50 μl/well of K-Blue® aqueous substrate (Neogen) were added, and the reaction was stopped after 5-15 min with 50 μl/well of 0.5 M […]. The optical density at 450 nm was read using an ELISA reader (Tecan). The optical density was plotted against the antibody concentration to generate concentration-response curves (FIG. 14).

Assay [11] concerns the target T4, recombinant full-length ApoE4 (aa …). The assay is described as above. As to the method:
as §3, §4

Assay [12] concerns the target T10, recombinant C-terminal ApoE fragment G200-HIS (ApoE-G200-H299-10xHIS) (human, UniProt P02649 218-317).
T10 construct: also called G200-HIS fragment
Described as above. The method, then:
as §3, §4

The target of assay [13] is T7, full-length ApoE in human brain extract …. Description: Western blot, human AD brain extract, hybridoma supernatant (data not shown for 21C3). From the text:
Selectivity evaluation and human target binding in Alzheimer's disease brain extracts by Western blot analysis: The Western blot analysis described below was used to evaluate selective binding of monoclonal antibodies with affinity for the N-terminal neo-epitope of ApoE fragments […], starting at G200, without binding to ApoE full-length protein, in human brain extracts from an Alzheimer's disease patient. Fresh frozen brain tissue from the Alzheimer's disease patient was homogenized in RIPA 2% SDS extraction buffer, followed by centrifugation at 16000×g for 1 h. The subsequent supernatant was subjected to standard protein concentration determination.
RIPA 2% SDS brain extract containing 80 μg total protein was mixed with 2×Laemmli sample buffer, boiled for 5 min at 95° C. and loaded onto SDS-PAGE gels (Bolt™ 12% Bis-Tris Plus 10 well, Thermo Fisher, cat. no. NW00120BOX). Gels were run for 30-40 min at 180 V, after which proteins were transferred from the gels to nitrocellulose membranes using the Trans-Blot® Turbo™ system (Bio-Rad). Membranes were blocked in Odyssey® blocking buffer for 1 h and incubated over night at room temperature with hybridoma supernatant diluted 1:1 in Odyssey® blocking buffer with 0.1% TWEEN®-20. […]
A general note: A western blot detects proteins with antibodies after separation by electrophoresis.

For orientation: EC50 means the midpoint of the concentration-response curve. As usually defined, the EC50 (read off the curve) is the midpoint of the concentration-response curve.

Non-standard residues stand in square brackets, D forms with d. No end group written: not given here. Ahx = NCCCCCC(=O)O

T7 sequence (P02649 19-317): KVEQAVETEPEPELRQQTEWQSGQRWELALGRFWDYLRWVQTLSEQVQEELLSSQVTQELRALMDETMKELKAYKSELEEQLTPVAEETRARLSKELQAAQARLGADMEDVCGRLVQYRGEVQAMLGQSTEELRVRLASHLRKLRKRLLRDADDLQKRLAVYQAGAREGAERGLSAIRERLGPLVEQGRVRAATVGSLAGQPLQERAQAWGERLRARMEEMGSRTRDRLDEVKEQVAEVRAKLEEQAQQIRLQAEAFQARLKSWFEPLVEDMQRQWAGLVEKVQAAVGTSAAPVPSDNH
T4 sequence (P02649 19-317 C130R limits assumed): as the sequence (P02649 19-317) above, with C112R counted along it
T10 sequence (P02649 other isoform, or with tags, fused parts or gaps limits assumed): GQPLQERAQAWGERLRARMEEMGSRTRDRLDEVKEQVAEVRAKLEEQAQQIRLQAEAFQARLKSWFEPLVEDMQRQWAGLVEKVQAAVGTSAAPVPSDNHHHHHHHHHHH
T6 sequence (P02649 other isoform, or with tags, fused parts or gaps limits assumed): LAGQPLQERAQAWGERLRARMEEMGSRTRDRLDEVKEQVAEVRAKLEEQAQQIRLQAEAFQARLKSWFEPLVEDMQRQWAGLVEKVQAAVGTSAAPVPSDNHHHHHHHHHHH
T8 sequence (P02649 other isoform, or with tags, fused parts or gaps limits assumed): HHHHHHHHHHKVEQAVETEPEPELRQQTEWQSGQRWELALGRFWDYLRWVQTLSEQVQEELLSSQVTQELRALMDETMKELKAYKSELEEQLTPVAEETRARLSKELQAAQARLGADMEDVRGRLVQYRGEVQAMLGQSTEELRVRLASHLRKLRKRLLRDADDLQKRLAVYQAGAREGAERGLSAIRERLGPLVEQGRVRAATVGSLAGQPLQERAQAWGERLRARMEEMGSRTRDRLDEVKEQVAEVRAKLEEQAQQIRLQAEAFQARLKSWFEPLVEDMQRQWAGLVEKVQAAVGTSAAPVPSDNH

B1: 6F4, monoclonal anti-L198 antibody (antibody, IgG1, V domains shown)
VH: EVNLEESGGDLVQPGRSLKLSCVASGFTFSDYWMNWVRQSPEKGLEWVAQIRLKSDNYVTHYVESLKGRFTISRDDSRSCVYLQMNNLRAEDTGIYYCTGHILLRRRYFDVWGTGTTVTVSS
VL: DIVMTQSQKFMSTSVGDRVSVTCEASQNVGTNVAWYQQKPGQSPKGLIYSASYRYSGVPDRFTGSGSGTDFTLTISTVQSEDLAEYFCHQFNTYPYTFGGGTTLEII
Turning to B1, the binding result is given as “binds” in assay [1]; “no binding (tested: 3000 ng/ml)” in [2]; “no binding (tested: 3000 ng/ml)” in assay [3]; “no binding (tested: 3000 ng/ml)” in assay [4]; “no binding (tested: 3000 ng/ml)” in assay [5]; “no binding (tested: 2 ug/ml (text))” in [7]. Further, in assay [8], the binding result was “no binding (tested: 3 µg/ml)”. For the same molecule, the EC50 in [6] was 18.5 ng/mL; in assay [9], 13.5 ng/mL.

B2: 21C3, hybridoma monoclonal antibody (unpurified supernatant) (antibody, V domains shown)
VH: EVQLVESGGDLVKPGGSLKLSCAASGFTFSSYAMSWVRQSPEKRLEWVAEISGSGSRDHYTDSVTGRFTVSRDNAKNTLYLEMSSLRSEDTAIYYCARQLTGTDYYGTDYWGQGTSVTVSS
VL: DVLMTQIPLSLPVSLGDQASISCRSSQSIVYSNGNTYLEWYLQRPGQSPKLLIYKVSNRFSGVPDRFSGSGSGTDFTLKISRVEAEDLGVYYCFQGSHLPYTFGGGTKLEIK
notes: same VH and VL as 4E6; not made as recombinant antibody
In the case of B2, the “EC50 (read off the curve)” value in [10] and in assay [12] was approximately 4 ng/mL throughout. In addition, the binding result is recorded as “no binding (tested: 1000 ng/ml)” in [11] and “no binding” in assay [13].

(Values after patent US20220242939A1 (BIOARCTIC, published 2022).)
